According to patent US20200223885A1 (TOSOH, published 2020):

B1: Fc-binding protein FcR9 (human FcγRIIIa amino acid substitution product) (receptor)
chain: KIEEAMGMRTEDLPKAEVILEPQWNRVLEKDSVTLKCRGAYSPEDNSTQWFHNESLISSQASSYLIDAATVDDSGEYRCQTSLSTLSDPVQLEVHIGWLLLQAPRWEFKEGDPIHLRCHSWKNTALHKVTYLQNGKGRKYFHHNSDFYIPKATLKDSGSYSCRGLVGSKNVSSETVNITITQGGHHHHHH
B2: FcR9_F_Cys (FcR9_F with a cysteine tag added) (receptor)
chain: MGMRTEDLPKAEVILEPQWNRVLEKDSVTLKCRGAYSPEDNSTQWFHNESLISSQASSYLIDAATVDDSGEYRCQTSLSTLSDPVQLEVHIGWLLLQAPRWEFKEGDPIHLRCHSWKNTALHKVTYLQNGKGRKYFHHNSDFYIPKATLKDSGSYSCRGLFGSKNVSSETVNITITQGCRNDTCG
notes: also called FcR9_F-immobilized gel; FcR9_F column

Legend:
[1] = target: T1, IgG1 (manufactured by Sigma-Aldrich); assay: SPR (Biacore T100), Fc-binding protein amine-coupled to CM5, IgG1 as analyte
T1 construct: Analyte in the SPR assay, diluted in HBS-EP; also called IgG1 antibody
Description: (7) IgG1-binding ability of each Fc-binding protein collected as the elution fraction in (6) was evaluated using the surface plasmon resonance method. Upon measurement of the binding ability using the surface plasmon resonance method, Biacore T100 (manufactured by GE Healthcare) was used as a measurement system, Sensor Chip CM5 (manufactured by GE Healthcare) was used as a sensor chip, and Biacore T100 Evaluation Software (manufactured by GE Healthcare) was used as analysis software.
(8) A solution prepared by diluting IgG1 (manufactured by Sigma-Aldrich) with HBS-EP (manufactured by GE Healthcare) was supplied to a sensor chip on which each Fc-binding protein was separately immobilized using an Amine Coupling Kit (manufactured by GE Healthcare), thereby obtaining a sensorgram. Curve fitting was performed based on the sensorgram so as to calculate IgG1-binding ability.

[2] = target: T2, monoclonal antibody (RITUXAN, manufactured by Zenyaku Kogyo Co., Ltd.); assay: affinity chromatography on the FcR9_F-immobilized gel column; equilibration 20 mM acetate, 50 mM NaCl, pH 5.0; elution by pH gradient to 10 mM glycine-HCl pH 3.0; 0.6 mL/min; A280
T2 construct: That tie rests on the trade name; also called rituximab
Description: (4) Five microliters of a monoclonal antibody (RITUXAN, manufactured by Zenyaku Kogyo Co., Ltd.), which was diluted with phosphate buffered saline (PBS) (pH 7.4) to yield a concentration of 1.0 mg/mL, was added at a flow rate of 0.6 mL/min.
(5) Washing was performed with the equilibration buffer for 2 minutes while the flow rate was maintained at 0.6 mL/min. Subsequently, a monoclonal antibody adsorbed was eluted with a pH gradient of 10 mM glycine-HCl buffer (pH 3.0) (i.e., a gradient in which 10 mM glycine-HCl buffer (pH 3.0) accounts for 100% in 28 minutes).

T2 sequence (heavy, as listed by the source, chain 1 of 2): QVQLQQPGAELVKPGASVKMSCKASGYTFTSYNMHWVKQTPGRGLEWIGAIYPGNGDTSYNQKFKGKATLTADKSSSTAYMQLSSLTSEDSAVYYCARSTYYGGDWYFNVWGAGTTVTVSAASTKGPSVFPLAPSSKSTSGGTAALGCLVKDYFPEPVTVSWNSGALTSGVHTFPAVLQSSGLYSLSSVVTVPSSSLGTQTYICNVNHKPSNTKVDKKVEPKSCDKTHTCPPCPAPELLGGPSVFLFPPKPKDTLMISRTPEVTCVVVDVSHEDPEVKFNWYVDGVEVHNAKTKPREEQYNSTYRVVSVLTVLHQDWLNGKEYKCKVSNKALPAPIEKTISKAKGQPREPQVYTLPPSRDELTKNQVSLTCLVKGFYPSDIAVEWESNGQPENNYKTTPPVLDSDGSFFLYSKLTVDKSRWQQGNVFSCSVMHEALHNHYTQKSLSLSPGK
T2 sequence (light, as listed by the source, chain 2 of 2): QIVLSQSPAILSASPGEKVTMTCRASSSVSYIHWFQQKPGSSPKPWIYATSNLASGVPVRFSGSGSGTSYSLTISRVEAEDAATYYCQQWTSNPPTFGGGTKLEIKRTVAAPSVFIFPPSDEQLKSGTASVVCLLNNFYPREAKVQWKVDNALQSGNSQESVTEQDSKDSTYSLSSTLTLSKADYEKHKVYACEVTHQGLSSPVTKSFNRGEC

Binder	Kd [1] [nM]	koff [1] [s⁻¹]	kon [1] [M⁻¹ s⁻¹]	binding result [2]
B1	77.3	0.0313	405000	
B2				binds
